± gives the uncertainty stated by the source.
B1: Death-inducer obliterator 1, residues 263 to 321; numbered along this chain, Q9BTC0 (parent)
chain: GYDPNALYCICRQPHNNRFMICCDRCEEWFHGDCVGISEARGRLLERNGEDYICPNCTI

Variants of: B1
Experiment: abundance fitness (aPCA) (normalised: wild type 0, dead -1); higher = more abundant; growth selection in yeast, the domain comes from the species named
Details: Homo sapiens

Row | Variant | abundance fitness
1 | GYDPNALYCICRQPHNNRFGICCDRCEEWFHGDCVGISEARGRLLERNGEDYICPNCTI [M20G] | -0.023 ± 0.069
2 | GYDPNALYCICRQPHNNRFLICCDRCEEWFHGDCVGISEARGRLLERNGEDYICPNCTI [M20L] | -0.037 ± 0.061
3 | GYDPNALYCICRQPHNNRFIICCDRCEEWFHGDCVGISEARGRLLERNGEDYICPNCTI [M20I] | 0.045 ± 0.073
4 | GYDPNALYCICRQPHNNRFAICCDRCEEWFHGDCVGISEARGRLLERNGEDYICPNCTI [M20A] | -0.343 ± 0.1
5 | GYDPNALYCICRQPHNFRFMICCDRCEEWFHGDCVGISEARGRLLERNGEDYICPNCTI [N17F] | -0.182 ± 0.082
6 | GYDPNALYCICRQPHNPRFMICCDRCEEWFHGDCVGISEARGRLLERNGEDYICPNCTI [N17P] | -0.179 ± 0.1
7 | GYDPNALYCICRQPHNARFMICCDRCEEWFHGDCVGISEARGRLLERNGEDYICPNCTI [N17A] | -0.03 ± 0.06
8 | GYDPNALYCICRQPHNMRFMICCDRCEEWFHGDCVGISEARGRLLERNGEDYICPNCTI [N17M] | -0.043 ± 0.089
9 | GYDPNALYCICRQPHNLRFMICCDRCEEWFHGDCVGISEARGRLLERNGEDYICPNCTI [N17L] | -0.05 ± 0.053
10 | GYDPNALYCICRQPHNDRFMICCDRCEEWFHGDCVGISEARGRLLERNGEDYICPNCTI [N17D] | -0.148 ± 0.075
11 | GYDPNALYCICRQPHNTRFMICCDRCEEWFHGDCVGISEARGRLLERNGEDYICPNCTI [N17T] | -0.07 ± 0.074
12 | GYDPNALYCICRQPHNVRFMICCDRCEEWFHGDCVGISEARGRLLERNGEDYICPNCTI [N17V] | -0.374 ± 0.073
13 | GYDPNALYCICRQPHNSRFMICCDRCEEWFHGDCVGISEARGRLLERNGEDYICPNCTI [N17S] | -0.111 ± 0.054
14 | GYDPNALYCICRQPHNQRFMICCDRCEEWFHGDCVGISEARGRLLERNGEDYICPNCTI [N17Q] | 0.181 ± 0.15
15 | GYDPNALYCICRQPHNWRFMICCDRCEEWFHGDCVGISEARGRLLERNGEDYICPNCTI [N17W] | -0.317 ± 0.11
16 | GYDPNALYCICRQPHNKRFMICCDRCEEWFHGDCVGISEARGRLLERNGEDYICPNCTI [N17K] | 0.023 ± 0.12
17 | GYDPNALYCICRQPHNIRFMICCDRCEEWFHGDCVGISEARGRLLERNGEDYICPNCTI [N17I] | -0.142 ± 0.11
18 | GYDPNALYCICRQPHNHRFMICCDRCEEWFHGDCVGISEARGRLLERNGEDYICPNCTI [N17H] | 0.008 ± 0.11
19 | GYDPNALYCICRQPHNGRFMICCDRCEEWFHGDCVGISEARGRLLERNGEDYICPNCTI [N17G] | 0.032 ± 0.051
20 | GYDPNALYCICRQPHNYRFMICCDRCEEWFHGDCVGISEARGRLLERNGEDYICPNCTI [N17Y] | -0.086 ± 0.059
21 | GYDPNALYCICRQPHNCRFMICCDRCEEWFHGDCVGISEARGRLLERNGEDYICPNCTI [N17C] | -0.117 ± 0.12
22 | GYDPNALYCICRQPHPNRFMICCDRCEEWFHGDCVGISEARGRLLERNGEDYICPNCTI [N16P] | -0.218 ± 0.074
23 | GYDPNALYCICRQPHKNRFMICCDRCEEWFHGDCVGISEARGRLLERNGEDYICPNCTI [N16K] | -0.019 ± 0.081

Row | Variant | abundance fitness
24 | GYDPNALYCICRQPHQNRFMICCDRCEEWFHGDCVGISEARGRLLERNGEDYICPNCTI [N16Q] | 0.027 ± 0.12
25 | GYDPNALYCICRQPHYNRFMICCDRCEEWFHGDCVGISEARGRLLERNGEDYICPNCTI [N16Y] | -0.399 ± 0.15
26 | GYDPNALYCICRQPHWNRFMICCDRCEEWFHGDCVGISEARGRLLERNGEDYICPNCTI [N16W] | -0.072 ± 0.12
27 | GYDPNALYCICRQPHLNRFMICCDRCEEWFHGDCVGISEARGRLLERNGEDYICPNCTI [N16L] | -0.064 ± 0.056
28 | GYDPNALYCICRQPHVNRFMICCDRCEEWFHGDCVGISEARGRLLERNGEDYICPNCTI [N16V] | -0.045 ± 0.057
29 | GYDPNALYCICRQPHHNRFMICCDRCEEWFHGDCVGISEARGRLLERNGEDYICPNCTI [N16H] | 0.108 ± 0.13
30 | GYDPNALYCICRQPHMNRFMICCDRCEEWFHGDCVGISEARGRLLERNGEDYICPNCTI [N16M] | 0.065 ± 0.055
31 | GYDPNALYCICRQPHSNRFMICCDRCEEWFHGDCVGISEARGRLLERNGEDYICPNCTI [N16S] | -0.119 ± 0.058
32 | GYDPNALYCICRQPHINRFMICCDRCEEWFHGDCVGISEARGRLLERNGEDYICPNCTI [N16I] | -0.109 ± 0.1
33 | GYDPNALYCICRQPHTNRFMICCDRCEEWFHGDCVGISEARGRLLERNGEDYICPNCTI [N16T] | 0.058 ± 0.064
34 | GYDPNALYCICRQPHNNRFMRCCDRCEEWFHGDCVGISEARGRLLERNGEDYICPNCTI [I21R] | -0.156 ± 0.07
35 | GYDPNALYCICRQPHNNRFMFCCDRCEEWFHGDCVGISEARGRLLERNGEDYICPNCTI [I21F] | -0.243 ± 0.083
36 | GYDPNALYCICRQPHNNRFMLCCDRCEEWFHGDCVGISEARGRLLERNGEDYICPNCTI [I21L] | -0.051 ± 0.047
37 | GYDPNALYCICRQPHNNRFMACCDRCEEWFHGDCVGISEARGRLLERNGEDYICPNCTI [I21A] | -0.144 ± 0.1
38 | GYDPNALYCICRQPHNNRFMMCCDRCEEWFHGDCVGISEARGRLLERNGEDYICPNCTI [I21M] | -0.104 ± 0.077
39 | GYDPNALYCICRQPHNNRFMKCCDRCEEWFHGDCVGISEARGRLLERNGEDYICPNCTI [I21K] | -0.04 ± 0.091
40 | GYDPNALYCICRQPHNNRFMGCCDRCEEWFHGDCVGISEARGRLLERNGEDYICPNCTI [I21G] | -0.575 ± 0.22
41 | GYDPNALYCICRQPHNNRFMDCCDRCEEWFHGDCVGISEARGRLLERNGEDYICPNCTI [I21D] | -0.692 ± 0.21
42 | GYDPNALYCICRQPHNNRFMHCCDRCEEWFHGDCVGISEARGRLLERNGEDYICPNCTI [I21H] | -0.4 ± 0.097
43 | GYDPNALYCICRQPHNNRFMTCCDRCEEWFHGDCVGISEARGRLLERNGEDYICPNCTI [I21T] | -0.177 ± 0.074
44 | GYDPNALYCICRQPHNNRFMECCDRCEEWFHGDCVGISEARGRLLERNGEDYICPNCTI [I21E] | -0.494 ± 0.16
45 | GYDPNALYCICRQPHNNRFMQCCDRCEEWFHGDCVGISEARGRLLERNGEDYICPNCTI [I21Q] | -0.164 ± 0.11

From the Human Domainome abundance scans (Beltran et al. 2025)
